Values quoted from earlier work, collected in article PMC3417803.
Like-named read-outs stand apart in the source and are kept apart here.

Tests used:
[1] = target: Midkine (Homo sapiens) (UniProt P21741)
[2] = target: Midkine (Homo sapiens) (UniProt P21741); remark: listed apart in the source

Sequence of UniProt P21741 (P21741 21-143): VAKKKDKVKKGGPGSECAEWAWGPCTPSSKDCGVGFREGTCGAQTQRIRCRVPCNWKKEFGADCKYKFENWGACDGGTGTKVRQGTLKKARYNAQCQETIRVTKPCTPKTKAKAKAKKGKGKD

## PTPζ (from UniProt P23471)
[1]
  Kd: 0.56 nM
[2]
  Kd: 8.8 nM
